Assay results from paper PMC5994690, “Virulence Associated Gene 8 of Bordetella pertussis Enhances Contact System Activity by Inhibiting the Regulatory Function of Complement Regulator C1 Inhibitor” (Frontiers in Immunology, 2018).

B1: Full length complement regulator C1 inhibitor (C1-INHFL), serum-derived (natural protein, UniProt P05155 23-500, looked up)
chain: NPNATSSSSQDPESLQDRGEGKVATTVISKMLFVEPILEVSSLPTTNSTTNSATKITANTTDEPTTQPTTEPTTQPTIQPTQPTTQLPTDSPTQPTTGSFCPGPVTLCSDLESHSTEAVLGDALVDFSLKLYHAFSAMKKVETNMAFSPFSIASLLTQVLLGAGENTKTNLESILSYPKDFTCVHQALKGFTTKGVTSVSQIFHSPDLAIRDTFVNASRTLYSSSPRVLSNNSDANLELINTWVAKNTNNKISRLLDSLPSDTRLVLLNAIYLSAKWKTTFDPKKTRMEPFHFKNSVIKVPMMNSKKYPVAHFIDQTLKAKVGQLQLSHNLSLVILVPQNLKHRLEDMEQALSPSVFKAIMEKLEMSKFQPTLLTLPRIKVTTSQDMLSIMEKLEFFDFSYDLNLCGLTEDPDLQVSAMQHQTVLELTETGVEAAAASAISVARTLLVFEVQQPFLFVLWDQQHKFPVFMGRVYDPRA
modifications: glycosylated (58 kDa protein/28 kDa sugar by SEC-MALS)
notes: Purified from serum (Complement Technology/Complement Technologies, Tyler, TX); source: bought: Complement Technology (serum-derived)
B2: Recombinant his-tag passenger domain of virulence associated gene 8 (Vag8) of Bordetella pertussis (domain or fragment)
chain: VTAAQRIDGGAAFLGDVAIATTKASEHGINVTGRTAEVRVTGGTIRTSGNQAQGLRVGTENAPDNTALGASVFLQNLIIETSGTGALGVSVHEPQGGGGTRLSMSGTTVRTRGDDSFALQLSGPASATLNDVALETAGQQAPAVVLWQGAQLNAQGLVVQVNGAGVSAIHAQDAGSFTLSGSDITARGLEVAGIYVQEGMQGTLTGTRVTTQGDTAPALQVEDAGTHVSMNGGALSTSGANSPAAWLLAGGSAQFRDTVLRTVGEASHGVDVAAHSEVELAHAQVRADGQGAHGLVVTRSSAMVRAGSLVESTGDGAAALLESGHLTVDGSVVHGHGAAGLEVDGESNVSLLNGARLSSDQPTAIRLIDPRSVLNLDIKDRAQLLGDIAPEAQQPDGSPEQARVRVALADGGTWAGRTDGAVHTVRLLDRGVWTVTGDSRVAEVKLEGGTLAFAPPAQPKGAFKTLVATQGISGTGTIVMNAHLPSGTADVLVAPQGFGDRQVLVVNNTDDGTESGATKVPLIEDEQGHTAFTLGNMGGRVDAGARQYELTASEAQADKARTWQLTPTNEL

Experiments:
[1] = molecular target: B2; experiment: SEC-MALS; S200 increase 10/300 column, 50 mM Tris pH 7.5, 150 mM NaCl, 0.4 mL/min; individual proteins and the complex; details: both partners purified
[2] = molecular target: B1; experiment: SPR; Biacore T200; Vag8 passenger domain immobilised by amine coupling on a CM5 chip; C1-INH 2.5-160 nM injected at 30 µL/min; 25°C, 10 mM HEPES pH 7.4, 150 mM NaCl, 3 mM EDTA, 0.005% P20; dissociation 300 s; details: both partners purified

B1 was tested, and the “stoichiometry N” value [1] was 1.

With B2 the Kd [2] was ≤ 1 nM.
